Three molecules from paper PMC12373829 (Nature Communications, 2025) can be followed below.

Data set [1] deals with T1, acarbose-preferred glucosidase (Apg) (Klebsiella grimontii, UniProt A0ABD7ANA7, DEL138-152).
T1 sequence (A0ABD7ANA7 1-605 DEL138-152): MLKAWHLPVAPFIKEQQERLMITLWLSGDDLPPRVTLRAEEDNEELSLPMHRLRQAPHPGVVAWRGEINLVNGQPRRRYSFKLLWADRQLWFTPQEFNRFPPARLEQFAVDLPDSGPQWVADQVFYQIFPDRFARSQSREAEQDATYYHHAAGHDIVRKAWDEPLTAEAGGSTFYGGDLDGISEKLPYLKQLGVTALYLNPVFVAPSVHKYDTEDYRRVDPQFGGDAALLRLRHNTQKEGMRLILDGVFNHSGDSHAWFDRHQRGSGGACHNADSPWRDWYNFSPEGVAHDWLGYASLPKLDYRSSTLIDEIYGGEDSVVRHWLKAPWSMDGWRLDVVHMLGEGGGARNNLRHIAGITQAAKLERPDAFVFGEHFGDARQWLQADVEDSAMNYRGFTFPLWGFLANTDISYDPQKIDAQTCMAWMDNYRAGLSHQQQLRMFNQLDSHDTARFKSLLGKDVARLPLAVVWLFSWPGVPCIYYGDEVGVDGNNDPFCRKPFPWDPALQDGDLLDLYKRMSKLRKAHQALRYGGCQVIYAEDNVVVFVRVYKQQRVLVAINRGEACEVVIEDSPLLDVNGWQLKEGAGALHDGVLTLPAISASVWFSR
Description: X-ray crystal structure. In kind it is binding.

Data set [2] has as its target acarbose-preferred glucosidase (Apg), wild type (K. grimontii TD1). Description: SEC. On the technique in general: Size exclusion chromatography separates by hydrodynamic size, large species first.
Substrate in data set [3]: C[C@H]1O[C@H](O[C@H]2[C@H](O)[C@@H](O)[C@@H](O[C@H]3[C@H](O)[C@@H](O)C(O)O[C@@H]3CO)O[C@@H]2CO)[C@H](O)[C@@H](O)[C@@H]1N[C@H]1C=C(CO)[C@@H](O)[C@H](O)[C@H]1O
Nature of the data set: purified protein. The conditions noted are these: active site; D448 nucleophile, E373/R334 proton donor.

Substrate in data set [4]: C[C@H]1O[C@H](O[C@H]2[C@H](O)[C@@H](O)[C@@H](O)O[C@@H]2CO)[C@H](O)[C@@H](O)[C@@H]1N[C@H]1C=C(CO)[C@@H](O)[C@H](O)[C@H]1O
Description: purified protein. The following applies: active site.

On to `OC[C@H]1O[C@H](O)[C@H](O)[C@@H](O)[C@@H]1O` [glucose], for which the “X-ray crystal structure (co-crystallization)” value in data set [1] is “Crystals of the glucose complex were obtained by co-crystallization of the ∆loop A mutant”. For the molecule “acarbose-preferred glucosidase (Apg), wild type (enzyme)”, in data set [2], the stoichiometry N (usually a count of units in the complex or per binding partner) turned out to be 2.

B1: acarbose-preferred glucosidase (Apg) (Klebsiella grimontii) (protein)
chain: T1 sequence (A0ABD7ANA7 1-605 DEL138-152)
As for B1, the Km (in general, the substrate concentration at which the rate is half of its maximum) in “purified protein [3]” is given as 2.600 ± 0.652 µM; in “purified protein [4]”, 6.642 ± 0.371 µM.
